Results published in patent US20060177479A1.

Molecular target: Notch receptor expressed on rat esophageal epithelial cells (rat)
Test: cell-based or functional assay

- Notch/CSL signaling (luciferase/Renilla intensity), immobilized Jagged-1/Fc against Fc control: 10 fold
- increase in luciferase activity as compared to Fc control plates, 10 nM Jagged-1/Fc precoat, 24 hours: 4 to 10 fold
Substance: Recombinant Rat Jagged-1/Fc chimera (Fc fusion)
